In paper PMC11287377, “tRNA ^Arg binds in vitro TDP-43 RNA recognition motifs and ligand of Ate1 protein LIAT1” (microPublication Biology, 2024):

B1: human TDP-43 NLS-RRM1-RRM2 (residues 85-266) (domain or fragment, UniProt Q13148 85-266, looked up)
chain: MDETDASSAVKVKRAVQKTSDLIVLGLPWKTTEQDLKEYFSTFGEVLMVQVKKDLKTGHSKGFGFVRFTEYETQVKVMSQRHMIDGRWCDCKLPNSKQSQDEPLRSRKVFVGRCTEDMTEDELREFFSQYGDVMDVFIPKPFRAFAFVTFADDQIAQSLCGEDLIIKGISVHISNAEPKHNS
notes: Tags removed with TEV protease; also called hTDP-43 NLS-RRM1-RRM2; source: E. coli BL21 KRX, purified (NiNTA, TEV digestion, SEC)
B2: recombinant mouse LIAT1 (ligand of Ate1 protein), full length (natural protein, UniProt Q810M6 1-228, looked up)
chain: MAGRGGTGAAEYGEEGEEEEEEEAREGGAEGSPGSKLPPIVGTASELAKRKVKKKKKKKKTKGSGKGDADKHHSRGRKNQPLSSSFHDILNPHKDHGLRAEPRDKEENRQTLPYSYSINHPCFAEIEDTLSSQINESLRWDGILTDPEAEKERIRIYKLNRRKRYRLMALKCFHSDPCVEESVENLPYLSDKDCSPCSKQPSSKGDHAHSYFEASKLLHPELATTVAE
notes: LIAT1 (ligand of Ate1), Mus musculus, full length, theoretical molecular weight ~24 kDa; Tags removed with TEV protease; also called mLIAT1; source: E. coli BL21 KRX, purified (NiNTA, TEV digestion, SEC)
B3: human TDP-43 NTD (residues 1-85) (domain or fragment, UniProt Q13148 1-85, looked up)
chain: MSEYIRVTEDENDEPIEIPSEDDGTVLLSTVTAQFPGACGLRYRNPVSQCMRGVRLVEGILHAPDAGWGNLVYVVNYPKDNKRKM
notes: Tags removed with TEV protease; also called hTDP-43 NTD; source: E. coli BL21 KRX, purified (NiNTA, TEV digestion, SEC)
B4: human TDP-43 NTD-ΔNLS-RRM1-RRM2 (residues 1-85 and 101-266) (domain or fragment, UniProt Q13148 1-85, looked up)
chain: MSEYIRVTEDENDEPIEIPSEDDGTVLLSTVTAQFPGACGLRYRNPVSQCMRGVRLVEGILHAPDAGWGNLVYVVNYPKDNKRKMQKTSDLIVLGLPWKTTEQDLKEYFSTFGEVLMVQVKKDLKTGHSKGFGFVRFTEYETQVKVMSQRHMIDGRWCDCKLPNSKQSQDEPLRSRKVFVGRCTEDMTEDELREFFSQYGDVMDVFIPKPFRAFAFVTFADDQIAQSLCGEDLIIKGISVHISNAEPKHNS
notes: Internal deletion of the NLS linker (residues 86-100); no replacing linker is mentioned; Tags removed with TEV protease; also called hTDP-43 NTD-ΔNLS-RRM1-RRM2; source: E. coli BL21 KRX, purified (NiNTA, TEV digestion, SEC)

Biological target: the molecule itself
Test: SEC; 500 uL of tagless purified protein on Superdex 75 10/30 in SEC buffer (150 mM KCl, 20 mM NaCl, 1 mM MgCl2, 5% glycerol, 50 mM HEPES pH 7.7), 0.5 mL/min; size from a calibration curve of standard proteins

Stoichiometry N, 2:
B1
B2
B3
B4
